Measured values taken from publication PMC6582406 (Nucleic Acids Research, 2019).

Target: the molecule itself
Experiment: SEC

B1: EBOV VP35 fused with maltose-binding protein at its N-terminal (MBP–VP35) (natural protein)
chain: MTTRTKGRGHTAATTQNDRMPGPELSGWISEQLMTGRIPVSDIFCDIENNPGLCYASQMQQTKPNPKTRNSQTQTDPICNHSFEEVVQTLASLATVVQQQTIASESLEQRITSLENGLKPVYDMAKTISSLNRVCAEMVAKYDLLVMTTGRATATAAATEAYWAEHGQPPPGPSLYEESAIRGKIESRDETVPQSVREAFNNLNSTTSLTEENFGKPDISAKDLRNIMYDHLPGFGTAFHQLVQVICKLGKDSNSLDIIHAEFQASLAEGDSPQCALIQITKRVPIFQDAAPPVIHIRSRGDIPRACQKSLRPVPPSPKIDRGWVCVFQLQDGKTLGLKI
binding result: binds
